How the values were obtained:
Test in all cases: cell-based or functional assay
[1] = molecular target: HIV-1 Env of isolate MGRM-D-008 (subtype D) (HIV-1)
[2] = molecular target: HIV-1 Env of isolate 92WR024 (subtype A) (HIV-1)
[3] = molecular target: HIV-1 Env of isolate MGRM-D-003 (subtype D) (HIV-1)
[4] = molecular target: HIV-1 Env of isolate MGRM-D-002 (subtype D) (HIV-1)
[5] = molecular target: HIV-1 Env of isolate MGRM-D-013 (subtype D) (HIV-1)
[6] = molecular target: HIV-1 Env of isolate MGRM-D-028 (subtype D) (HIV-1)
[7] = molecular target: HIV-1 Env of isolate 93WR029 (subtype A) (HIV-1)
[8] = molecular target: HIV-1 Env of isolate 92WR021 (subtype A) (HIV-1)
[9] = molecular target: HIV-1 Env of isolate MGRM-F1-022 (subtype F) (HIV-1)
[10] = molecular target: HIV-1 Env of isolate 92WR020 (subtype A) (HIV-1)
[11] = molecular target: HIV-1 Env of isolate 93UG077 (subtype A) (HIV-1)
[12] = molecular target: HIV-1 Env of isolate VLGCA1 (subtype A) (HIV-1)
[13] = molecular target: HIV-1 Env of isolate MGRM-D-018 (subtype D) (HIV-1)
[14] = molecular target: HIV-1 Env of isolate 94UG103 (subtype A) (HIV-1)
[15] = molecular target: HIV-1 Env of isolate MGRM-F1-021 (subtype F) (HIV-1)
[16] = molecular target: HIV-1 Env of isolate 92TH021 (subtype AE) (HIV-1)
[17] = molecular target: HIV-1 Env of isolate MGRM-F1-012 (subtype F) (HIV-1)
[18] = molecular target: HIV-1 Env of isolate MGRM-F1-017 (subtype F) (HIV-1)
[19] = molecular target: HIV-1 Env of isolate MGRM-AE-007 (subtype AE) (HIV-1)
[20] = molecular target: HIV-1 Env of isolate MGRM-AE-001 (subtype AE) (HIV-1)
[21] = molecular target: HIV-1 Env of isolate MGRM-D-020 (subtype D) (HIV-1)
[22] = molecular target: HIV-1 Env of isolate MGRM-AE-004 (subtype AE) (HIV-1)
[23] = molecular target: HIV-1 Env of isolate MGRM-F1-016 (subtype F) (HIV-1)
[24] = molecular target: HIV-1 Env of isolate 92UG114 (subtype D) (HIV-1)
[25] = molecular target: HIV-1 Env of isolate MGRM-F1-018 (subtype F) (HIV-1)
[26] = molecular target: HIV-1 Env of isolate MGRM-D-005 (subtype D) (HIV-1)
[27] = molecular target: HIV-1 Env of isolate MGRM-F1-015 (subtype F) (HIV-1)
[28] = molecular target: HIV-1 Env of isolate MGRM-F1-010 (subtype F) (HIV-1)
[29] = molecular target: HIV-1 Env of isolate MGRM-D-019 (subtype D) (HIV-1)
[30] = molecular target: HIV-1 Env of isolate MGRM-D-029 (subtype D) (HIV-1)
[31] = molecular target: HIV-1 Env of isolate MGRM-AE-006 (subtype AE) (HIV-1)
[32] = molecular target: HIV-1 Env of isolate 92UG031 (subtype A) (HIV-1)
[33] = molecular target: HIV-1 Env of isolate 94 KE 105 (subtype AC) (HIV-1)
[34] = molecular target: HIV-1 Env of isolate CMU02 (subtype AE) (HIV-1)
[35] = molecular target: HIV-1 Env of isolate MGRM-D-021 (subtype D) (HIV-1)
[36] = molecular target: HIV-1 Env of isolate MGRM-F1-006 (subtype F) (HIV-1)
[37] = molecular target: HIV-1 Env of isolate MGRM-AE-003 (subtype AE) (HIV-1)
[38] = molecular target: HIV-1 Env of isolate MGRM-D-026 (subtype D) (HIV-1)
[39] = molecular target: HIV-1 Env of isolate MGRM-D-022 (subtype D) (HIV-1)
[40] = molecular target: HIV-1 Env of isolate MGRM-D-001 (subtype D) (HIV-1)
[41] = molecular target: HIV-1 Env of isolate MGRM-F1-014 (subtype F) (HIV-1)
[42] = molecular target: HIV-1 Env of isolate MGRM-AE-008 (subtype AE) (HIV-1)
[43] = molecular target: HIV-1 Env of isolate MGRM-D-016 (subtype D) (HIV-1)
[44] = molecular target: HIV-1 Env of isolate MGRM-D-024 (subtype D) (HIV-1)
[45] = molecular target: HIV-1 Env of isolate MGRM-D-004 (subtype D) (HIV-1)
[46] = molecular target: HIV-1 Env of isolate MGRM-F1-004 (subtype F) (HIV-1)
[47] = molecular target: HIV-1 Env of isolate MGRM-AE-005 (subtype AE) (HIV-1)
[48] = molecular target: HIV-1 Env of isolate MGRM-F1-008 (subtype F) (HIV-1)
[49] = molecular target: HIV-1 Env of isolate MGRM-D-014 (subtype D) (HIV-1)
[50] = molecular target: HIV-1 Env of isolate 92WR026 (subtype A) (HIV-1)
[51] = molecular target: HIV-1 Env of isolate MGRM-F1-013 (subtype F) (HIV-1)
[52] = molecular target: HIV-1 Env of isolate 92WR009 (subtype A) (HIV-1)
[53] = molecular target: HIV-1 Env of isolate MGRM-F1-020 (subtype F) (HIV-1)
[54] = molecular target: HIV-1 Env of isolate MGRM-D-011 (subtype D) (HIV-1)
[55] = molecular target: HIV-1 Env of isolate MGRM-AE-002 (subtype AE) (HIV-1)
[56] = molecular target: HIV-1 Env of isolate 92UG037 (subtype A) (HIV-1)
[57] = molecular target: HIV-1 Env of isolate MGRM-F1-023 (subtype F) (HIV-1)
[58] = molecular target: HIV-1 Env of isolate MGRM-D-012 (subtype D) (HIV-1)

Sequence of PGT-145 (4995_P16) (antibody) (VH): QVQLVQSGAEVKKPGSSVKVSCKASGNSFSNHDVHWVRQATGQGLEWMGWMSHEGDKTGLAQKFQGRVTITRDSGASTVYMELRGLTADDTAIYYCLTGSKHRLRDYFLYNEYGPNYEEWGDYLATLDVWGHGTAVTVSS
Sequence of PGT-145 (4995_P16) (antibody) (VL): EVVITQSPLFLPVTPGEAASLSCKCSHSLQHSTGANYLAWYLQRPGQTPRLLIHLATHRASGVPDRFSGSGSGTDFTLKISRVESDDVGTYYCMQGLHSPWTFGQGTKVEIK

Substance: PGT-145 (4995_P16) (antibody)
- IC50 (pseudovirus neutralization) [1]: 0.025 µg/mL
- IC50 (pseudovirus neutralization) [2]: 0.069 µg/mL
- IC50 (pseudovirus neutralization) [3]: 0.006 µg/mL
- IC50 (pseudovirus neutralization) [4]: > 50 µg/mL
- IC50 (pseudovirus neutralization) [5]: 3.48 µg/mL
- IC50 (pseudovirus neutralization) [6]: 0.721 µg/mL
- IC50 (pseudovirus neutralization) [7]: > 50 µg/mL
- IC50 (pseudovirus neutralization) [8]: 1.62 µg/mL
- IC50 (pseudovirus neutralization) [9]: 0.009 µg/mL
- IC50 (pseudovirus neutralization) [10]: 0.997 µg/mL
- IC50 (pseudovirus neutralization) [11]: > 50 µg/mL
- IC50 (pseudovirus neutralization) [12]: 8.01 µg/mL
- IC50 (pseudovirus neutralization) [13]: 0.065 µg/mL
- IC50 (pseudovirus neutralization) [14]: 0.331 µg/mL
- IC50 (pseudovirus neutralization) [15]: 8.04 µg/mL
- IC50 (pseudovirus neutralization) [16]: 0.013 µg/mL
- IC50 (pseudovirus neutralization) [17]: 0.113 µg/mL
- IC50 (pseudovirus neutralization) [18]: 0.286 µg/mL
- IC50 (pseudovirus neutralization) [19]: 0.181 µg/mL
- IC50 (pseudovirus neutralization) [20]: 20.9 µg/mL
- IC50 (pseudovirus neutralization) [21]: 10 µg/mL
- IC50 (pseudovirus neutralization) [22]: 0.006 µg/mL
- IC50 (pseudovirus neutralization) [23]: 17.5 µg/mL
- IC50 (pseudovirus neutralization) [24]: 20.1 µg/mL
- IC50 (pseudovirus neutralization) [25]: 1.02 µg/mL
- IC50 (pseudovirus neutralization) [26]: 10.4 µg/mL
- IC50 (pseudovirus neutralization) [27]: 1.76 µg/mL
- IC50 (pseudovirus neutralization) [28]: 3.32 µg/mL
- IC50 (pseudovirus neutralization) [29]: 0.111 µg/mL
- IC50 (pseudovirus neutralization) [30]: 0.03 µg/mL
- IC50 (pseudovirus neutralization) [31]: > 50 µg/mL
- IC50 (pseudovirus neutralization) [32]: 3.22 µg/mL
- IC50 (pseudovirus neutralization) [33]: 1.32 µg/mL
- IC50 (pseudovirus neutralization) [34]: 1.43 µg/mL
- IC50 (pseudovirus neutralization) [35]: > 50 µg/mL
- IC50 (pseudovirus neutralization) [36]: 13.6 µg/mL
- IC50 (pseudovirus neutralization) [37]: 0.552 µg/mL
- IC50 (pseudovirus neutralization) [38]: 0.41 µg/mL
- IC50 (pseudovirus neutralization) [39]: 34.3 µg/mL
- IC50 (pseudovirus neutralization) [40]: 0.56 µg/mL
- IC50 (pseudovirus neutralization) [41]: 0.009 µg/mL
- IC50 (pseudovirus neutralization) [42]: 1.46 µg/mL
- IC50 (pseudovirus neutralization) [43]: > 50 µg/mL
- IC50 (pseudovirus neutralization) [44]: 0.224 µg/mL
- IC50 (pseudovirus neutralization) [45]: 10.9 µg/mL
- IC50 (pseudovirus neutralization) [46]: 0.361 µg/mL
- IC50 (pseudovirus neutralization) [47]: 0.967 µg/mL
- IC50 (pseudovirus neutralization) [48]: 0.228 µg/mL
- IC50 (pseudovirus neutralization) [49]: 2.51 µg/mL
- IC50 (pseudovirus neutralization) [50]: 1.45 µg/mL
- IC50 (pseudovirus neutralization) [51]: 0.402 µg/mL
- IC50 (pseudovirus neutralization) [52]: 0.026 µg/mL
- IC50 (pseudovirus neutralization) [53]: 0.816 µg/mL
- IC50 (pseudovirus neutralization) [54]: 14.7 µg/mL
- IC50 (pseudovirus neutralization) [55]: 1.87 µg/mL
- IC50 (pseudovirus neutralization) [56]: 3.15 µg/mL
- IC50 (pseudovirus neutralization) [57]: 5.88 µg/mL
- IC50 (pseudovirus neutralization) [58]: > 50 µg/mL

From patent publication US20160264649A1
